Test results published in paper PMC6359379, “SLC35A5 Protein—A Golgi Complex Member with Putative Nucleotide Sugar Transport Activity” (International Journal of Molecular Sciences, 2019).

B1: Solute carrier family 35 member A5 (SLC35A5), eGFP fusion (natural protein, human, UniProt Q9BS91 1-424, looked up)
chain: MEKQCCSHPVICSLSTMYTFLLGAIFIALSSSRILLVKYSANEENKYDYLPTTVNVCSELVKLVFCVLVSFCVIKKDHQSRNLKYASWKEFSDFMKWSIPAFLYFLDNLIVFYVLSYLQPAMAVIFSNFSIITTALLFRIVLKRRLNWIQWASLLTLFLSIVALTAGTKTLQHNLAGRGFHHDAFFSPSNSCLLFRSECPRKDNCTAKEWTFPEAKWNTTARVFSHIRLGMGHVLIIVQCFISSMANIYNEKILKEGNQLTESIFIQNSKLYFFGILFNGLTLGLQRSNRDQIKNCGFFYGHSAFSVALIFVTAFQGLSVAFILKFLDNMFHVLMAQVTTVIITTVSVLVFDFRPSLEFFLEAPSVLLSIFIYNASKPQVPEYAPRQERIRDLSGNLWERSSGDGEELERLTKPKSDESDEDTF
notes: SLC35A5, putative nucleotide sugar transporter; expressed from the plasmid pTag-GFP2-C-A5; FRET donor in every pair; In the pair A5 + A5 the second copy carried mRFP (pTag-RFP-C-SLC35A construct) in place of eGFP; also called pTag-GFP2-C-A5; source: HEK293T, transiently transfected, in living cells
B2: UDP-N-acetylglucosamine transporter (SLC35A3), mRFP fusion (natural protein, UniProt Q9Y2D2 1-325, looked up)
chain: MFANLKYVSLGILVFQTTSLVLTMRYSRTLKEEGPRYLSSTAVVVAELLKIMACILLVYKDSKCSLRALNRVLHDEILNKPMETLKLAIPSGIYTLQNNLLYVALSNLDAATYQVTYQLKILTTALFSVSMLSKKLGVYQWLSLVILMTGVAFVQWPSDSQLDSKELSAGSQFVGLMAVLTACFSSGFAGVYFEKILKETKQSVWIRNIQLGFFGSIFGLMGVYIYDGELVSKNGFFQGYNRLTWIVVVLQALGGLVIAAVIKYADNILKGFATSLSIILSTLISYFWLQDFVPTSVFFLGAILVITATFLYGYDPKPAGNPTKA
notes: SLC35A3, UDP-N-acetylglucosamine transporter; expressed from a pTag-RFP-C-SLC35A construct; FRET acceptor; source: HEK293T, transiently transfected, in living cells
B3: SLC35A4, mRFP fusion (natural protein, UniProt Q96G79 1-324, looked up)
chain: MSVEDGGMPGLGRPRQARWTLMLLLSTAMYGAHAPLLALCHVDGRVPFRPSSAVLLTELTKLLLCAFSLLVGWQAWPQGPPPWRQAAPFALSALLYGANNNLVIYLQRYMDPSTYQVLSNLKIGSTAVLYCLCLRHRLSVRQGLALLLLMAAGACYAAGGLQVPGNTLPSPPPAAAASPMPLHITPLGLLLLILYCLISGLSSVYTELLMKRQRLPLALQNLFLYTFGVLLNLGLHAGGGSGPGLLEGFSGWAALVVLSQALNGLLMSAVMKHGSSITRLFVVSCSLVVNAVLSAVLLRLQLTAAFFLATLLIGLAMRLYYGSR
notes: SLC35A4, member of the SLC35A subfamily; expressed from a pTag-RFP-C-SLC35A construct; FRET acceptor; source: HEK293T, transiently transfected, in living cells
B4: CMP-sialic acid transporter (SLC35A1), mRFP fusion (natural protein, UniProt P78382 1-337, looked up)
chain: MAAPRDNVTLLFKLYCLAVMTLMAAVYTIALRYTRTSDKELYFSTTAVCITEVIKLLLSVGILAKETGSLGRFKASLRENVLGSPKELLKLSVPSLVYAVQNNMAFLALSNLDAAVYQVTYQLKIPCTALCTVLMLNRTLSKLQWVSVFMLCAGVTLVQWKPAQATKVVVEQNPLLGFGAIAIAVLCSGFAGVYFEKVLKSSDTSLWVRNIQMYLSGIIVTLAGVYLSDGAEIKEKGFFYGYTYYVWFVIFLASVGGLYTSVVVKYTDNIMKGFSAAAAIVLSTIASVMLFGLQITLTFALGTLLVCVSIYLYGLPRQDTTSIQQGETASKERVIGV
notes: SLC35A1, CMP-sialic acid transporter; expressed from a pTag-RFP-C-SLC35A construct; FRET acceptor; The legend writes 'mRFP/SLC35A proteins'; also called mRFP/SLC35A1; source: HEK293T, transiently transfected, in living cells
B5: UDP-galactose transporter (SLC35A2), ER splice variant, mRFP fusion (natural protein, UniProt P78381-1 1-396, looked up)
chain: MAAVGAGGSTAAPGPGAVSAGALEPGTASAAHRRLKYISLAVLVVQNASLILSIRYARTLPGDRFFATTAVVMAEVLKGLTCLLLLFAQKRGNVKHLVLFLHEAVLVQYVDTLKLAVPSLIYTLQNNLQYVAISNLPAATFQVTYQLKILTTALFSVLMLNRSLSRLQWASLLLLFTGVAIVQAQQAGGGGPRPLDQNPGAGLAAVVASCLSSGFAGVYFEKILKGSSGSVWLRNLQLGLFGTALGLVGLWWAEGTAVATRGFFFGYTPAVWGVVLNQAFGGLLVAVVVKYADNILKGFATSLSIVLSTVASIRLFGFHVDPLFALGAGLVIGAVYLYSLPRGAAKAIASASASASGPCVHQQPPGQPPPPQLSSHRGDLITEPFLPKLLTKVKGS
notes: SLC35A2, UDP-galactose transporter, the second splice variant, localised mainly to the ER (A2-ER); expressed from a pTag-RFP-C-SLC35A construct; FRET acceptor; also called second splice variant of SLC35A2; source: HEK293T, transiently transfected, in living cells
B6: UDP-galactose transporter (SLC35A2), Golgi splice variant, mRFP fusion (natural protein, UniProt P78381-2 1-393, looked up)
chain: MAAVGAGGSTAAPGPGAVSAGALEPGTASAAHRRLKYISLAVLVVQNASLILSIRYARTLPGDRFFATTAVVMAEVLKGLTCLLLLFAQKRGNVKHLVLFLHEAVLVQYVDTLKLAVPSLIYTLQNNLQYVAISNLPAATFQVTYQLKILTTALFSVLMLNRSLSRLQWASLLLLFTGVAIVQAQQAGGGGPRPLDQNPGAGLAAVVASCLSSGFAGVYFEKILKGSSGSVWLRNLQLGLFGTALGLVGLWWAEGTAVATRGFFFGYTPAVWGVVLNQAFGGLLVAVVVKYADNILKGFATSLSIVLSTVASIRLFGFHVDPLFALGAGLVIGAVYLYSLPRGAAKAIASASASASGPCVHQQPPGQPPPPQLSSHRGDLITEPFLPKSVLVK
notes: expressed from a pTag-RFP-C-SLC35A construct; FRET acceptor; also called first splice variant of SLC35A2; source: HEK293T, transiently transfected, in living cells

Molecular target: the molecule itself
Assay: FRET or BRET; FLIM/FRET in living HEK293T cells transiently co-transfected, analysed 48 h after transfection in FluoroBrite DMEM; SLC35A5-eGFP as donor, mRFP-tagged SLC35A proteins as acceptors; eGFP lifetime of the donor alone 2.70 ns
Conditions: not given
For B1, the “eGFP fluorescence lifetime of the donor with the acceptor (donor alone 2.70 ns)” value (“eGFP fluorescence lifetime of the donor” for short) was 2.51 ns.

What follows are binders tested against B1 in the same assay as above. Conditions: partners not purified.
B2 was tested, and the “eGFP fluorescence lifetime of the donor” value was 2.35 ns.
For B3, the “eGFP fluorescence lifetime of the donor” value was 2.39 ns.
For B4, the “eGFP fluorescence lifetime of the donor” value was 2.29 ns.
In the case of B5, the “eGFP fluorescence lifetime of the donor” value is reported as 2.31 ns.
For B6, the “eGFP fluorescence lifetime of the donor” value was 2.24 ns.
